# Reference: publication PMC8497620, “Structure and inhibition of Cryptococcus neoformans sterylglucosidase to develop antifungal agents” (Nature Communications, 2021)
# Biological target: C. neoformans Sgl1 (Cryptococcus neoformans var. grubii, UniProt J9W473)
# Assay: H/D exchange mass spectrometry mapping of disordered regions
# Conditions: H/D exchange MS of C. neoformans Sgl1; per peptide (amino acids Start-End, Sequence); Fig S2a
# Protocol: HDX-MS reactions were performed in a similar manner as is outlined in previous publications. HDX reactions were conducted in a final reaction volume of 50 µL with a final Sgl1 concentration of 0.6 µM (30 pmol). Exchange was carried out in triplicate for a single time point (3 s at 4 °C). Hydrogen deuterium exchange was initiated by the addition of 48 µL of D2O buffer (100 mM NaCl (20 mM pH 6.0 Bis-Tris), 90.5% D2O (V/V) to 1 µL of protein and 1 µL of H2O. Exchange was terminated by the addition of ice-cold acidic quench buffer, resulting in a final concentration of 0.6 M guanidine-HCl and 0.9% FA post quench. Samples were immediately frozen in liquid nitrogen and stored at −80 °C. Fully deuterated samples were generated by first denaturing the protein in 2 M guanidine for 5 min at 20 °C. Following denaturing, 48 µL of D2O buffer was added to the denatured protein and allowed to incubate for 5 min at 20 °C before quenching. Samples were flash frozen and stored at −80 °C until injection onto the ultra-performance liquid chromatography (UPLC) system for proteolytic cleavage, peptide separation, and injection onto a QTOF for mass analysis.
# Protein sample was rapidly thawed and injected onto a UPLC system kept in a cold box at 2 °C. The protein was run over two immobilized pepsin columns (Applied Biosystems; Porosyme 2-3131-00) and the peptides were collected onto a VanGuard Precolumn trap (Waters). The trap was eluted in line with an ACQUITY 1.7 μm particle, 100 × 1 mm^2 C18 UPLC column (Waters), using a gradient of 5–36% B (Buffer A 0.1% formic acid, Buffer B 100% acetonitrile) over 16 min. MS experiments were performed on an Impact QTOF (Bruker) and peptide identification was done by running tandem MS (MS/MS) experiments run in data-dependent acquisition mode. The resulting MS/MS dataset was analyzed using PEAKS7 (PEAKS) and a false discovery rate was set at 1% using a database of purified proteins and known contaminants. HDExaminer Software (Sierra Analytics) was used to automatically calculate the level of deuterium incorporation into each peptide. All peptides were manually inspected for correct charge state and presence of overlapping peptides. Deuteration levels were calculated using the centroid of the experimental isotope clusters, with correction for back exchange generated using the fully deuterated sample. The mass spectrometry proteomics data have been deposited to the ProteomeXchange Consortium via the PRIDE partner repository[31] with the dataset identifier PXD024981.
# Chain of C. neoformans Sgl1 (J9W473 entry or part of it): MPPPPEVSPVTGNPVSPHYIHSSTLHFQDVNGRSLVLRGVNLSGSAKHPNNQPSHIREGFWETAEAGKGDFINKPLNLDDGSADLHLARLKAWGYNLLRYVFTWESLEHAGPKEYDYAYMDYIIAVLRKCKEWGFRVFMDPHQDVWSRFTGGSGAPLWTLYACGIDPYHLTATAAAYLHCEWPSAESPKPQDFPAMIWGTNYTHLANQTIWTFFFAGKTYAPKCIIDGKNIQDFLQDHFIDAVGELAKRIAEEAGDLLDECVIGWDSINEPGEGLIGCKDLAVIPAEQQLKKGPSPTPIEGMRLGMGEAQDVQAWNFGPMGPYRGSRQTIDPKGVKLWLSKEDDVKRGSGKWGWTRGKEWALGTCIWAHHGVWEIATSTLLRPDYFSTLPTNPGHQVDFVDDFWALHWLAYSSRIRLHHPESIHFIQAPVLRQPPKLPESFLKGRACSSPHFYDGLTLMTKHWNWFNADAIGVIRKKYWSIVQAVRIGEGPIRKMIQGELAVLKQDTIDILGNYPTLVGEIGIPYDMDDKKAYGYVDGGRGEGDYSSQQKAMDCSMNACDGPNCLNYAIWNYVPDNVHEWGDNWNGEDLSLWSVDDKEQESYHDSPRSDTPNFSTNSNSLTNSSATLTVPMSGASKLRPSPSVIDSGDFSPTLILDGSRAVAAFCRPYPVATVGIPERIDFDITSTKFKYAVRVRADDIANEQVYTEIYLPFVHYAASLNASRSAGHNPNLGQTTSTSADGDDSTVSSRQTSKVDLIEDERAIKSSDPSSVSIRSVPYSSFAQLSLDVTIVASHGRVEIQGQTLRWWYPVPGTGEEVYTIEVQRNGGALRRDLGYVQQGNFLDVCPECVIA
row,Substance,"% Deuterium incorporation, Average"
1,AASLNASRSAGHNPNLGQTTSTSADGDD,99.7%
2,AASLNASRSAGHNPNLGQTTSTSADGDDSTVSSRQTSKVDL,100.9%
3,AIWNYVPDNVHEWGDN,23.9%
4,AKRIAEE,1.8%
5,AKRIAEEAGDL,9.2%
6,AKRIAEEAGDLLDE,12.0%
7,ANQTIWTF,-1.6%
8,ARLKAWGYNLL,2.5%
9,ASKLRPSPSV,76.0%
10,ASKLRPSPSVIDSGDFSPTL,47.3%
11,ASKLRPSPSVIDSGDFSPTLIL,40.9%
12,ATLTVPMSGASKLRPSPSVIDSGDFSPTL,63.6%
13,AVIPAEQQL,59.2%
14,AVIPAEQQLKKGPSPTPIEG,30.1%
15,AVIPAEQQLKKGPSPTPIEGM,29.8%
16,AVLKQDTID,23.0%
17,AVLKQDTIDILGNYPTL,14.1%
18,AVRIGEGPIRKMIQGEL,20.2%
19,AVRVRADDIANE,16.0%
20,AYSSRIRLHHPESIHFI,3.1%
21,CIWAHHGVWE,1.8%
22,CKDLAVIPAEQQLKKGPSPTPIEG,25.2%

row,Substance,"% Deuterium incorporation, Average"
1,CVIGWDSINEPGEG,3.6%
2,CVIGWDSINEPGEGLIGCKDL,4.2%
3,DAIGVIRKKYWSIVQA,36.2%
4,DDGSADLHL,35.8%
5,DDKKAYGYVDGGRGEGDYSSQQKAMD,28.0%
6,DERAIKSSDPSS,103.7%
7,DITSTKF,7.2%
8,DITSTKFKYAVRVRA,3.2%
9,DITSTKFKYAVRVRADD,4.2%
10,DITSTKFKYAVRVRADDIANE,9.0%
11,DTIDILGNYPTL,14.2%
12,DVQAWNFGPMGPYRGSRQTIDPKGVKL,26.1%
13,DVTIVASHGRVEIQGQT,25.2%
14,DVTIVASHGRVEIQGQTL,21.1%
15,DVTIVASHGRVEIQGQTLRWWYPVPGTGE,20.6%
16,DVTIVASHGRVEIQGQTLRWWYPVPGTGEEV,19.0%
17,DVTIVASHGRVEIQGQTLRWWYPVPGTGEEVY,16.6%
18,EIATSTL,59.2%
19,EIYLPFVHY,0.7%
20,ERAIKSSDPSS,103.4%
21,FCRPYPVA,21.1%
22,FCRPYPVAT,4.6%

row,Substance,"% Deuterium incorporation, Average"
1,FCRPYPVATVGIPERIDF,5.0%
2,FLKGRACSSPHF,26.5%
3,FSTLPTNPGHQVDF,50.7%
4,GQTTSTSADGDDSTVSSRQTSKVDL,102.4%
5,HCEWPSAESPKPQDF,58.4%
6,HCEWPSAESPKPQDFPAM,59.9%
7,HDSPRSDTPNF,91.2%
8,IATSTLLRPDYFSTLPTNPGHQVDF,31.3%
9,IDAVGEL,5.7%
10,IDILGNYPTL,20.4%
11,IDSGDFSPTL,36.2%
12,IDSGDFSPTLIL,26.0%
13,IEDERAIKSSDPSS,101.2%
14,IEDERAIKSSDPSSV,101.6%
15,IEDERAIKSSDPSSVS,106.2%
16,IEDERAIKSSDPSSVSIRSVPYSSF,100.4%
17,IEVQRNGGAL,28.7%
18,IEVQRNGGALRRDLG,58.5%
19,IGCKDLAVIPAEQQLKKGPSPTPIEG,24.8%
20,IGWDSINEPGEGL,4.5%
21,IGWDSINEPGEGLIGCKDL,4.5%
22,IIDGKNIQD,14.1%

row,Substance,"% Deuterium incorporation, Average"
1,IIDGKNIQDFLQDHF,7.4%
2,IKSSDPSS,106.2%
3,IKSSDPSSVSIRSVPYSSF,106.5%
4,ILDGSRAVAA,26.4%
5,ILDGSRAVAAF,24.1%
6,ILGNYPTL,27.3%
7,INKPLNL,46.8%
8,INKPLNLDDGSADL,26.9%
9,INKPLNLDDGSADLHL,21.9%
10,IQAPVLRQPPKLPES,35.7%
11,IQAPVLRQPPKLPESF,36.0%
12,IQAPVLRQPPKLPESFL,31.8%
13,IRKKYWSIVQAV,45.4%
14,IYLPFVHY,2.9%
15,IYLPFVHYAASL,21.4%
16,KDLAVIPAEQQLKKGPSPTPIEG,24.0%
17,KGRACSSPHFYDGLTL,28.7%
18,KKAYGYVDGGRGEGDYSSQQKAMD,29.0%
19,KKGPSPTPIEG,6.7%
20,KQDTIDILGNYPTL,22.4%
21,KYAVRVRADDIANE,12.4%
22,LAVIPAEQQLKKGPSPTPIEG,28.2%

row,Substance,"% Deuterium incorporation, Average"
1,LAVIPAEQQLKKGPSPTPIEGM,28.2%
2,LAYSSRIRLHHPESIHF,4.9%
3,LDVCPEC,80.8%
4,LKKGPSPTPIEG,11.2%
5,LRKCKEWGF,-8.6%
6,LRPDYFSTLPTNPGHQVDF,37.3%
7,LRWWYPVPGTGE,31.2%
8,LRWWYPVPGTGEEV,23.5%
9,LRWWYPVPGTGEEVY,19.1%
10,LSGSAKHPNNQPSHIREGF,54.3%
11,LTVPMSGASKLRPSPSV,86.0%
12,LTVPMSGASKLRPSPSVIDSGD,65.2%
13,LTVPMSGASKLRPSPSVIDSGDFSPTL,59.4%
14,LVLRGVN,5.8%
15,LVLRGVNL,7.5%
16,LVLRGVNLSGSAKHPNNQPSH,28.6%
17,LVLRGVNLSGSAKHPNNQPSHIREGF,33.7%
18,MRLGMGEAQ,9.3%
19,MRLGMGEAQDVQA,6.8%
20,MRLGMGEAQDVQAWNFGPMGPYRGSRQTIDPKGVKL,19.3%
21,MTKHWNWFNA,29.9%
22,NACDGPNCLN,19.4%

row,Substance,"% Deuterium incorporation, Average"
1,NACDGPNCLNY,17.8%
2,NADAIGVIRKKYWSIVQ,33.7%
3,NASRSAGHNPNLGQTTSTSADGDD,102.3%
4,NASRSAGHNPNLGQTTSTSADGDDST,100.5%
5,NASRSAGHNPNLGQTTSTSADGDDSTVSSRQTSKVDL,102.1%
6,NASRSAGHNPNLGQTTSTSADGDDSTVSSRQTSKVDLIE,100.2%
7,NYAIWNYVPDNVHE,17.1%
8,NYVPDNVHE,30.1%
9,NYVPDNVHEWGDN,41.1%
10,NYVPDNVHEWGDNW,32.4%
11,PVLRQPPKLPES,47.4%
12,PVLRQPPKLPESF,50.6%
13,PVLRQPPKLPESFL,40.7%
14,PVTGNPVSPHYIHSSTL,36.8%
15,PVTGNPVSPHYIHSSTLHF,30.4%
16,QDVNGRS,17.0%
17,QLKKGPSPTPIEG,10.2%
18,QQLKKGPSPTPIEG,10.8%
19,RADDIANE,33.8%
20,RAIKSSDPSS,103.0%
21,RAIKSSDPSSV,101.5%
22,RAIKSSDPSSVS,104.6%
